As usually defined, the Kd is a measure of binding affinity in units of concentration.

The values that follow come from PMC5775257.

The data set has as its system Roquin-1 (aa 2-441);NUFIP2 (aa 255-411) (mouse;human). The data set can be described thus: EMSA. Particulars: 10 mM HEPES pH 7.5, 150 mM NaCl, 2 mM MgCl2, 4% glycerol, tRNA 30 ug/mL, 5 nM labeled RNA, 30 min at 25 °C; native 4% TBE PAGE. (Mobility shift assays separate free from complexed probe on a gel.)

The substance “Ox40 3'-UTR tandem element (nt 1064-1126)” returned a Kd of 0.0107 µM. In other words, the double-digit nanomolar range.
For the substance “ICOS 3'-UTR tandem cis-element (nt 2183-2271)”, the Kd worked out at 0.0113 µM.
